Source: patent US12104178B2, “DHFR tunable protein regulation” (Obsidian Therapeutics, Inc., priority 2017, dated 2024)
Residue numbers refer to the chain shown, from its start. Numbers in names are those of the source. Where two headings read alike, the source gives them in different places.

B1: OT-RLuc-005: DD regulated Renilla luciferase (protein)
chain: MTSKVYDPEQRKRMITGPQWWARCKQMNVLDSFINYYDSEKHAENAVIFLHGNAASSYLWRHVVPHIEPVARCIIPDLIGMGKSGKSGNGSYRLLDHYKYLTAWFELLNLPKKIIFVGHDWGACLAFHYSYEHQDKIKAIVHAESVVDVIESWDEWPDIEEDIALIKSEEGEKMVLENNFFVETMLPSKIMRKLEPEEFAAYLEPFKEKGEVRRPTLSWPREIPLVKGGKPDVVQIVRNYNAYLRASDDLPKMFIESDPGFFSNAIVEGAKKFPNTEFVKVKGLHFSQEDAPDEMGKYIKSFVERVLKNEQSGGVQVETISPGDGRTFPKRGQTCVVHYTGMLGDGKKVDSSRDRNKPFKFMLGKQEVIRGWEEGVAQMSVGQGAKLTISPDYAYGATGHPGIIPPHATLVFDVELLELE
B2: OT-RLuc-001: constitutive Renilla luciferase construct (protein, listed as Renilla reniformis)
chain: MTSKVYDPEQRKRMITGPQWWARCKQMNVLDSFINYYDSEKHAENAVIFLHGNAASSYLWRHVVPHIEPVARCIIPDLIGMGKSGKSGNGSYRLLDHYKYLTAWFELLNLPKKIIFVGHDWGACLAFHYSYEHQDKIKAIVHAESVVDVIESWDEWPDIEEDIALIKSEEGEKMVLENNFFVETMLPSKIMRKLEPEEFAAYLEPFKEKGEVRRPTLSWPREIPLVKGGKPDVVQIVRNYNAYLRASDDLPKMFIESDPGFFSNAIVEGAKKFPNTEFVKVKGLHFSQEDAPDEMGKYIKSFVERVLKNEQ
B3: OT-RLuc-006: DD regulated Renilla luciferase (protein)
chain: MTSKVYDPEQRKRMITGPQWWARCKQMNVLDSFINYYDSEKHAENAVIFLHGNAASSYLWRHVVPHIEPVARCIIPDLIGMGKSGKSGNGSYRLLDHYKYLTAWFELLNLPKKIIFVGHDWGACLAFHYSYEHQDKIKAIVHAESVVDVIESWDEWPDIEEDIALIKSEEGEKMVLENNFFVETMLPSKIMRKLEPEEFAAYLEPFKEKGEVRRPTLSWPREIPLVKGGKPDVVQIVRNYNAYLRASDDLPKMFIESDPGFFSNAIVEGAKKFPNTEFVKVKGLHFSQEDAPDEMGKYIKSFVERVLKNEQSGISLIAALAVDYVIGMENAMPWNLPADLAWFKRNTLNKPVIMGRHTWESIGRPLPGRKNIILSSQPGTDDRVTWVKSVDEAIAACGDVPEIMVIGGGRVIEQFLPKAQKLYLTHIDAEVEGDTHFPDYEPDDWESVFSEFHDADAQNSHSYCFEILERR
B4: OT-hDHFRN-005: hDHFR A125F, Y122I-GFP (protein, UniProt P00374 1-187, looked up, variant A125F Y122I)
Dihydrofolate reductase: MVGSLNCIVAVSQNMGIGKNGDLPWPPLRNEFRYFQRMTTTSSVEGKQNLVIMGKKTWFSIPEKNRPLKGRINLVLSRELKEPPQGAHFLSRSLDDALKLTEQPELANKVDMVWIVGGSSVIKEFMNHPGHLKLFVTRIMQDFESDTFFPEIDLEKYKLLPEYPGVLSDVQEEKGIKYKFEVYEKND
modifications: GFP fusion
notes: hDHFR A125F, Y122I-GFP
B5: OT-hDHFRC-031: combination mutant hDHFR (N127Y, Y122I) (protein, UniProt P00374 1-187, looked up, variant N127Y Y122I)
Dihydrofolate reductase: B4 Dihydrofolate reductase with F125A, N127Y
B6: OT-DHFRC-029: combination mutant hDHFR (I17V, Y122I) (protein, UniProt P00374 1-187, looked up, variant I17V Y122I)
Dihydrofolate reductase: B4 Dihydrofolate reductase with I17V, F125A
B7: OT-hDHFRC-030: combination mutant hDHFR (Y122I, M140I) (protein, UniProt P00374 1-187, looked up, variant Y122I M140I)
Dihydrofolate reductase: B4 Dihydrofolate reductase with F125A, M140I
B8: OT-hDHFRC-032: combination mutant hDHFR (Y122I, H131R, E144G) (protein, UniProt P00374 1-187, looked up, variant Y122I H131R E144G)
Dihydrofolate reductase: B4 Dihydrofolate reductase with F125A, H131R, E144G
B9: OT-RLuc-004: DD regulated Renilla luciferase (protein)
chain: MISLIAALAVDYVIGMENAMPWNLPADLAWFKRNTLNKPVIMGRHTWESIGRPLPGRKNIILSSQPGTDDRVTWVKSVDEAIAACGDVPEIMVIGGGRVIEQFLPKAQKLYLTHIDAEVEGDTHFPDYEPDDWESVFSEFHDADAQNSHSYCFEILERRSGTSKVYDPEQRKRMITGPQWWARCKQMNVLDSFINYYDSEKHAENAVIFLHGNAASSYLWRHVVPHIEPVARCIIPDLIGMGKSGKSGNGSYRLLDHYKYLTAWFELLNLPKKIIFVGHDWGACLAFHYSYEHQDKIKAIVHAESVVDVIESWDEWPDIEEDIALIKSEEGEKMVLENNFFVETMLPSKIMRKLEPEEFAAYLEPFKEKGEVRRPTLSWPREIPLVKGGKPDVVQIVRNYNAYLRASDDLPKMFIESDPGFFSNAIVEGAKKFPNTEFVKVKGLHFSQEDAPDEMGKYIKSFVERVLKNEQ

Key:
[1] = cited from earlier work; for Duration of action: in vivo
[2] = test system: HCT-116 cells; assay: DD regulated luciferase, western blot and luciferase activity; format: cell-based, human; conditions: 1 μM Shield-1 or 10 μM Trimethoprim, 24 h
Source text: DD regulated luciferase can be used to track cells in vivo e.g. T cells. Firefly luciferase or Renilla luciferase may be utilized as the payload. HCT-116 cells were stably transduced with the constitutive (OT-RLuc-001) or DD regulated constructs (OT-RLuc-002, OT-RLuc-003, OT-RLuc-004, OT-RLuc-005 and OT-RLuc-006). […] Blots were also probed with anti-GAPDH antibody to ensure uniform protein loading in all samples. […] (FIG. 59A).
Ligand dependent activity of Renilla and firefly luciferase constructs was measured using coelentrazine and luciferin substrates respectively. […] Luciferase activity was measured as luminescence reading using a luminometer and the values were compared to control samples consisting of lysis buffer and substrate.

[3] = test system: hDHFR; assay: Immunoblot of hDHFR WT and mutants after TMP, MTX or DMSO; format: cell-based, human; conditions: MTX or DMSO 48 h
Source text: The results were consistent using both the AcGFP antibody as well as the hDHFR antibody.

[4] = test system: NIH 3T3 cells; assay: hDHFR mutant-GFP reporter stability with DMSO, MTX or TMP (FACS); format: cell-based; conditions: for GFP intensity Fold Change vs DMSO: 48 h
Source text: Known destabilizing mutations in E. coli DHFR (ecDHFR) were mapped onto the structure of human DHFR (hDHFR) and corresponding mutations in wild type hDHFR protein were generated using site directed mutagenesis. hDHFR mutants were then fused to a linker, GGSGGG (SEQ ID NO: 2728) and a GFP reporter gene at the N terminus. […] The hDHFR N terminus mutant construct cloned into pLVX. IRES. The reporter constructs were transfected into NIH 3T3 cells. […] DMSO was used as control. Fluorescence signal was measured by FACS and median fluorescence signal intensity was calculated. The destabilizing mutation co-efficient was calculated as the fold change in GFP intensity in the hDHFR mutant constructs compared to the hDHFR (WT) in the absence of the ligand. Destabilizing mutation co-efficients less than 1 are desired in DDs.
Percentage of GFP positive cells as a measure of ligand dependent DD stabilization in each transfection was calculated using FACS Calibur™ (see Table 46).

[5] = test system: HCT116 cells; assay: Combination mutation analysis, TMP dose response MFI; format: cell-based, human
Source text: Mutations identified by random mutagenesis were combined with mutations identified by site directed mutagenesis.

| Molecule | Luciferase stabilization by western blot (FIG. 59A) [2] | MFI ([5]; DMSO, 48 h) | Stabilization ratio ([5]; TMP dose (log) −4) | MFI ([5]; TMP dose (log) −4, 48 h) | Stabilization ratio ([5]; TMP dose (log) −4.48) | MFI ([5]; TMP dose (log) −4.48, 48 h) | Stabilization ratio ([5]; TMP dose (log) −4.95) | MFI ([5]; TMP dose (log) −4.95, 48 h) | Stabilization ratio ([5]; TMP dose (log) −5.43) | MFI ([5]; TMP dose (log) −5.43, 48 h) | Stabilization ratio ([5]; TMP dose (log) −5.91) | MFI ([5]; TMP dose (log) −5.91, 48 h) | Stabilization ratio ([5]; TMP dose (log) −6.39) | MFI ([5]; TMP dose (log) −6.39, 48 h) | Stabilization ratio ([5]; TMP dose (log) −6.86) | MFI ([5]; TMP dose (log) −6.86, 48 h) | further results |
| --- | --- | --- | --- | --- | --- | --- | --- | --- | --- | --- | --- | --- | --- | --- | --- | --- | --- |
| COc1cc(Cc2cnc(N)nc2N)cc(OC)c1OC [Trimethoprim] | – | – | – | – | – | – | – | – | – | – | – | – | – | – | – | – | Cmax ([1]; IV, approved dose IV 20 mg/kg/6 hr): 25 µM; Cmax ([1]; PO, approved dose PO up to 20 mg/kg/day): 1 µM; Duration of action [1]: 2 to 72 h |
| CN(Cc1cnc2nc(N)nc(N)c2n1)c1ccc(C(=O)N[C@@H](CCC(=O)O)C(=O)O)cc1 [Methotrexate] | – | – | – | – | – | – | – | – | – | – | – | – | – | – | – | – | Cmax ([1]; 12 g/m^2 infusion): 1.5 µM; Duration of action [1]: >12 h |
| B1 | modest stabilization of Renilla luciferase in the presence of their corresponding ligand | – | – | – | – | – | – | – | – | – | – | – | – | – | – | – | – |
| B2 | expression of Renilla luciferase both in the presence and absence of ligand | – | – | – | – | – | – | – | – | – | – | – | – | – | – | – | Luciferase activity (FIG. 59B) [2]: high luciferase activity both in the presence and absence of ligand |
| B3 | modest stabilization of Renilla luciferase in the presence of their corresponding ligand | – | – | – | – | – | – | – | – | – | – | – | – | – | – | – | – |
| B4 | – | – | – | – | – | – | – | – | – | – | – | – | – | – | – | – | Protein level stabilization (immunoblot, FIG. 19) [3]: stabilized following treatment with both MTX and TMP; % GFP positive cells ([4]; 1 μM MTX): 89.6%; GFP intensity Fold Change vs DMSO ([4]; 1 μM MTX): 26.98; % GFP positive cells ([4]; 10 μM TMP): 54.7%; GFP intensity Fold Change vs DMSO ([4]; 10 μM TMP): 6.24; % GFP positive cells ([4]; DMSO): 0.64%; Destabilizing mutation co-efficient ([4]; GFP intensity vs hDHFR (WT), no ligand): 0.14; Median Fluorescence signal with DMSO ([4]; hDHFR-GFP, DMSO 48 h, no ligand): 2.55 |
| B5 | – | 2565 | 56.59 | 145144 | 38.52 | 98805 | 20.77 | 53282 | 6.14 | 15743 | 2.17 | 5576 | 1.30 | 3345 | 1.14 | 2922 | – |
| B6 | – | 3041 | 52.17 | 158659 | 37.93 | 115339 | 21.76 | 66170 | 7.71 | 23454 | 2.29 | 6966 | 1.43 | 4355 | 1.13 | 3439 | – |
| B7 | – | 2539 | 26.28 | 66732 | 8.23 | 20890 | 2.62 | 6641 | 1.38 | 3494 | 1.09 | 2766 | 1.03 | 2618 | 1.04 | 2643 | – |
| B8 | – | 2627 | 18.99 | 49891 | 4.66 | 12247 | 1.94 | 5092 | 1.24 | 3246 | 1.08 | 2826 | 1.03 | 2694 | 1.03 | 2704 | – |
| B9 | modest stabilization of Renilla luciferase in the presence of their corresponding ligand | – | – | – | – | – | – | – | – | – | – | – | – | – | – | – | – |
